We go through six proteins from ChEMBL document CHEMBL1212811, “Chemical phylogenetics of histone deacetylases” (Nat Chem Biol, 2010).

Substrate in data set [1]: CC(=O)N[C@@H](CC(C)C)C(=O)NCC(=O)N[C@@H](CCCCNC(=O)C(F)(F)F)C(=O)Nc1ccc2c(C)cc(=O)oc2c1
As to the kind of experiment: Activity of HDAC7 at 10 uM.

Substrate in data set [2]: CC(=O)N[C@@H](CC(C)C)C(=O)NCC(=O)N[C@@H](CCCCNC(=O)C(F)(F)F)C(=O)Nc1ccc2c(C)cc(=O)oc2c1
Description: Activity of HDAC9 at 10 uM.

Substrate in data set [3]: CC(=O)NCCCC[C@H](NC(=O)CNC(=O)[C@H](CC(C)C)NC(C)=O)C(=O)Nc1ccc2c(C)cc(=O)oc2c1
The note with it: 10 uM.

Substrate in data set [4]: CC(=O)N[C@@H](CC(C)C)C(=O)NCC(=O)N[C@@H](CCCCNC(=O)C(F)(F)F)C(=O)Nc1ccc2c(C)cc(=O)oc2c1
Description: Activity of HDAC8 at 10 uM.

Substrate in data set [5]: CC(=O)N[C@@H](CC(C)C)C(=O)NCC(=O)N[C@@H](CCCCNC(=O)C(F)(F)F)C(=O)Nc1ccc2c(C)cc(=O)oc2c1
As to the kind of experiment: Activity of HDAC4 at 10 uM.

Substrate in data set [6]: CC(=O)NCCCC[C@H](NC(=O)CNC(=O)[C@H](CC(C)C)NC(C)=O)C(=O)Nc1ccc2c(C)cc(=O)oc2c1
The note with it: 10 uM. This is another data set of the same source.

B1: Histone deacetylase 7 (Homo sapiens), Q8WUI4 (protein)
chain: MDLRVGQRPPVEPPPEPTLLALQRPQRLHHHLFLAGLQQQRSVEPMRLSMDTPMPELQVGPQEQELRQLLHKDKSKRSAVASSVVKQKLAEVILKKQQAALERTVHPNSPGIPYRTLEPLETEGATRSMLSSFLPPVPSLPSDPPEHFPLRKTVSEPNLKLRYKPKKSLERRKNPLLRKESAPPSLRRRPAETLGDSSPSSSSTPASGCSSPNDSEHGPNPILGSEALLGQRLRLQETSVAPFALPTVSLLPAITLGLPAPARADSDRRTHPTLGPRGPILGSPHTPLFLPHGLEPEAGGTLPSRLQPILLLDPSGSHAPLLTVPGLGPLPFHFAQSLMTTERLSGSGLHWPLSRTRSEPLPPSATAPPPPGPMQPRLEQLKTHVQVIKRSAKPSEKPRLRQIPSAEDLETDGGGPGQVVDDGLEHRELGHGQPEARGPAPLQQHPQVLLWEQQRLAGRLPRGSTGDTVLLPLAQGGHRPLSRAQSSPAAPASLSAPEPASQARVLSSSETPARTLPFTTGLIYDSVMLKHQCSCGDNSRHPEHAGRIQSIWSRLQERGLRSQCECLRGRKASLEELQSVHSERHVLLYGTNPLSRLKLDNGKLAGLLAQRMFVMLPCGGVGVDTDTIWNELHSSNAARWAAGSVTDLAFKVASRELKNGFAVVRPPGHHADHSTAMGFCFFNSVAIACRQLQQQSKASKILIVDWDVHHGNGTQQTFYQDPSVLYISLHRHDDGNFFPGSGAVDEVGAGSGEGFNVNVAWAGGLDPPMGDPEYLAAFRIVVMPIAREFSPDLVLVSAGFDAAEGHPAPLGGYHVSAKCFGYMTQQLMNLAGGAVVLALEGGHDLTAICDASEACVAALLGNRVDPLSEEGWKQKPNLNAIRSLEAVIRVHSKYWGCMQRLASCPDSWVPRVPGADKEEVEAVTALASLSVGILAEDRPSEQLVEEEEPMNL
As usually defined, the Km is the substrate concentration at which the rate is half of its maximum. As for B1, in data set [1], the Km was 19.8 µM.

B2: Histone deacetylase 9 (Homo sapiens), Q9UKV0 (protein)
chain: MHSMISSVDVKSEVPVGLEPISPLDLRTDLRMMMPVVDPVVREKQLQQELLLIQQQQQIQKQLLIAEFQKQHENLTRQHQAQLQEHIKELLAIKQQQELLEKEQKLEQQRQEQEVERHRREQQLPPLRGKDRGRERAVASTEVKQKLQEFLLSKSATKDTPTNGKNHSVSRHPKLWYTAAHHTSLDQSSPPLSGTSPSYKYTLPGAQDAKDDFPLRKTASEPNLKVRSRLKQKVAERRSSPLLRRKDGNVVTSFKKRMFEVTESSVSSSSPGSGPSSPNNGPTGSVTENETSVLPPTPHAEQMVSQQRILIHEDSMNLLSLYTSPSLPNITLGLPAVPSQLNASNSLKEKQKCETQTLRQGVPLPGQYGGSIPASSSHPHVTLEGKPPNSSHQALLQHLLLKEQMRQQKLLVAGGVPLHPQSPLATKERISPGIRGTHKLPRHRPLNRTQSAPLPQSTLAQLVIQQQHQQFLEKQKQYQQQIHMNKLLSKSIEQLKQPGSHLEEAEEELQGDQAMQEDRAPSSGNSTRSDSSACVDDTLGQVGAVKVKEEPVDSDEDAQIQEMESGEQAAFMQQPFLEPTHTRALSVRQAPLAAVGMDGLEKHRLVSRTHSSPAASVLPHPAMDRPLQPGSATGIAYDPLMLKHQCVCGNSTTHPEHAGRIQSIWSRLQETGLLNKCERIQGRKASLEEIQLVHSEHHSLLYGTNPLDGQKLDPRILLGDDSQKFFSSLPCGGLGVDSDTIWNELHSSGAARMAVGCVIELASKVASGELKNGFAVVRPPGHHAEESTAMGFCFFNSVAITAKYLRDQLNISKILIVDLDVHHGNGTQQAFYADPSILYISLHRYDEGNFFPGSGAPNEVGTGLGEGYNINIAWTGGLDPPMGDVEYLEAFRTIVKPVAKEFDPDMVLVSAGFDALEGHTPPLGGYKVTAKCFGHLTKQLMTLADGRVVLALEGGHDLTAICDASEACVNALLGNELEPLAEDILHQSPNMNAVISLQKIIEIQSMSLKFS
With B2, the Km in data set [2] is 37 µM.

B3: Protein deacetylase HDAC6 (Homo sapiens), Q9UBN7 (protein)
chain: MTSTGQDSTTTRQRRSRQNPQSPPQDSSVTSKRNIKKGAVPRSIPNLAEVKKKGKMKKLGQAMEEDLIVGLQGMDLNLEAEALAGTGLVLDEQLNEFHCLWDDSFPEGPERLHAIKEQLIQEGLLDRCVSFQARFAEKEELMLVHSLEYIDLMETTQYMNEGELRVLADTYDSVYLHPNSYSCACLASGSVLRLVDAVLGAEIRNGMAIIRPPGHHAQHSLMDGYCMFNHVAVAARYAQQKHRIRRVLIVDWDVHHGQGTQFTFDQDPSVLYFSIHRYEQGRFWPHLKASNWSTTGFGQGQGYTINVPWNQVGMRDADYIAAFLHVLLPVALEFQPQLVLVAAGFDALQGDPKGEMAATPAGFAQLTHLLMGLAGGKLILSLEGGYNLRALAEGVSASLHTLLGDPCPMLESPGAPCRSAQASVSCALEALEPFWEVLVRSTETVERDNMEEDNVEESEEEGPWEPPVLPILTWPVLQSRTGLVYDQNMMNHCNLWDSHHPEVPQRILRIMCRLEELGLAGRCLTLTPRPATEAELLTCHSAEYVGHLRATEKMKTRELHRESSNFDSIYICPSTFACAQLATGAACRLVEAVLSGEVLNGAAVVRPPGHHAEQDAACGFCFFNSVAVAARHAQTISGHALRILIVDWDVHHGNGTQHMFEDDPSVLYVSLHRYDHGTFFPMGDEGASSQIGRAAGTGFTVNVAWNGPRMGDADYLAAWHRLVLPIAYEFNPELVLVSAGFDAARGDPLGGCQVSPEGYAHLTHLLMGLASGRIILILEGGYNLTSISESMAACTRSLLGDPPPLLTLPRPPLSGALASITETIQVHRRYWRSLRVMKVEDREGPSSSKLVTKKAPQPAKPRLAERMTTREKKVLEAGMGKVTSASFGEESTPGQTNSETAVVALTQDQPSEAATGGATLAQTISEAAIGGAMLGQTTSEEAVGGATPDQTTSEETVGGAILDQTTSEDAVGGATLGQTTSEEAVGGATLAQTTSEAAMEGATLDQTTSEEAPGGTELIQTPLASSTDHQTPPTSPVQGTTPQISPSTLIGSLRTLELGSESQGASESQAPGEENLLGEAAGGQDMADSMLMQGSRGLTDQAIFYAVTPLPWCPHLVAVCPIPAAGLDVTQPCGDCGTIQENWVCLSCYQVYCGRYINGHMLQHHGNSGHPLVLSYIDLSAWCYYCQAYVHHQALLDVKNIAHQNKFGEDMPHPH
Turning to B3, in data set [3], the Km was determined as 16 µM.

B4: Histone deacetylase 8 (Homo sapiens), Q9BY41 (protein)
chain: MEEPEEPADSGQSLVPVYIYSPEYVSMCDSLAKIPKRASMVHSLIEAYALHKQMRIVKPKVASMEEMATFHTDAYLQHLQKVSQEGDDDHPDSIEYGLGYDCPATEGIFDYAAAIGGATITAAQCLIDGMCKVAINWSGGWHHAKKDEASGFCYLNDAVLGILRLRRKFERILYVDLDLHHGDGVEDAFSFTSKVMTVSLHKFSPGFFPGTGDVSDVGLGKGRYYSVNVPIQDGIQDEKYYQICESVLKEVYQAFNPKAVVLQLGADTIAGDPMCSFNMTPVGIGKCLKYILQWQLATLILGGGGYNLANTARCWTYLTGVILGKTLSSEIPDHEFFTAYGPDYVLEITPSCRPDRNEPHRIQQILNYIKGNLKHVV
For B4, the Km in data set [4] came out at 190 µM.

B5: Histone deacetylase 4 (Homo sapiens), P56524 (protein)
chain: MSSQSHPDGLSGRDQPVELLNPARVNHMPSTVDVATALPLQVAPSAVPMDLRLDHQFSLPVAEPALREQQLQQELLALKQKQQIQRQILIAEFQRQHEQLSRQHEAQLHEHIKQQQEMLAMKHQQELLEHQRKLERHRQEQELEKQHREQKLQQLKNKEKGKESAVASTEVKMKLQEFVLNKKKALAHRNLNHCISSDPRYWYGKTQHSSLDQSSPPQSGVSTSYNHPVLGMYDAKDDFPLRKTASEPNLKLRSRLKQKVAERRSSPLLRRKDGPVVTALKKRPLDVTDSACSSAPGSGPSSPNNSSGSVSAENGIAPAVPSIPAETSLAHRLVAREGSAAPLPLYTSPSLPNITLGLPATGPSAGTAGQQDAERLTLPALQQRLSLFPGTHLTPYLSTSPLERDGGAAHSPLLQHMVLLEQPPAQAPLVTGLGALPLHAQSLVGADRVSPSIHKLRQHRPLGRTQSAPLPQNAQALQHLVIQQQHQQFLEKHKQQFQQQQLQMNKIIPKPSEPARQPESHPEETEEELREHQALLDEPYLDRLPGQKEAHAQAGVQVKQEPIESDEEEAEPPREVEPGQRQPSEQELLFRQQALLLEQQRIHQLRNYQASMEAAGIPVSFGGHRPLSRAQSSPASATFPVSVQEPPTKPRFTTGLVYDTLMLKHQCTCGSSSSHPEHAGRIQSIWSRLQETGLRGKCECIRGRKATLEELQTVHSEAHTLLYGTNPLNRQKLDSKKLLGSLASVFVRLPCGGVGVDSDTIWNEVHSAGAARLAVGCVVELVFKVATGELKNGFAVVRPPGHHAEESTPMGFCYFNSVAVAAKLLQQRLSVSKILIVDWDVHHGNGTQQAFYSDPSVLYMSLHRYDDGNFFPGSGAPDEVGTGPGVGFNVNMAFTGGLDPPMGDAEYLAAFRTVVMPIASEFAPDVVLVSSGFDAVEGHPTPLGGYNLSARCFGYLTKQLMGLAGGRIVLALEGGHDLTAICDASEACVSALLGNELDPLPEKVLQQRPNANAVRSMEKVMEIHSKYWRCLQRTTSTAGRSLIEAQTCENEEAETVTAMASLSVGVKPAEKRPDEEPMEEEPPL
For B5, the Michaelis-Menten constant (Km) in data set [5] came out at 10.3 µM.

B6: Histone deacetylase 3 (Homo sapiens), O15379 (protein)
chain: MAKTVAYFYDPDVGNFHYGAGHPMKPHRLALTHSLVLHYGLYKKMIVFKPYQASQHDMCRFHSEDYIDFLQRVSPTNMQGFTKSLNAFNVGDDCPVFPGLFEFCSRYTGASLQGATQLNNKICDIAINWAGGLHHAKKFEASGFCYVNDIVIGILELLKYHPRVLYIDIDIHHGDGVQEAFYLTDRVMTVSFHKYGNYFFPGTGDMYEVGAESGRYYCLNVPLRDGIDDQSYKHLFQPVINQVVDFYQPTCIVLQCGADSLGCDRLGCFNLSIRGHGECVEYVKSFNIPLLVLGGGGYTVRNVARCWTYETSLLVEEAISEELPYSEYFEYFAPDFTLHPDVSTRIENQNSRQYLDQIRQTIFENLKMLNHAPSVQIHDVPADLLTYDRTDEADAEERGPEENYSRPEAPNEFYDGDHDNDKESDVEI
B6: the Michaelis constant (Km) in data set [6] stood at 6 µM.
